T1: EsCas13d, nuclease-dead (Eubacterium siraeum, UniProt B0MS50, R295A;H300A;R849A;H854A)
T1 sequence: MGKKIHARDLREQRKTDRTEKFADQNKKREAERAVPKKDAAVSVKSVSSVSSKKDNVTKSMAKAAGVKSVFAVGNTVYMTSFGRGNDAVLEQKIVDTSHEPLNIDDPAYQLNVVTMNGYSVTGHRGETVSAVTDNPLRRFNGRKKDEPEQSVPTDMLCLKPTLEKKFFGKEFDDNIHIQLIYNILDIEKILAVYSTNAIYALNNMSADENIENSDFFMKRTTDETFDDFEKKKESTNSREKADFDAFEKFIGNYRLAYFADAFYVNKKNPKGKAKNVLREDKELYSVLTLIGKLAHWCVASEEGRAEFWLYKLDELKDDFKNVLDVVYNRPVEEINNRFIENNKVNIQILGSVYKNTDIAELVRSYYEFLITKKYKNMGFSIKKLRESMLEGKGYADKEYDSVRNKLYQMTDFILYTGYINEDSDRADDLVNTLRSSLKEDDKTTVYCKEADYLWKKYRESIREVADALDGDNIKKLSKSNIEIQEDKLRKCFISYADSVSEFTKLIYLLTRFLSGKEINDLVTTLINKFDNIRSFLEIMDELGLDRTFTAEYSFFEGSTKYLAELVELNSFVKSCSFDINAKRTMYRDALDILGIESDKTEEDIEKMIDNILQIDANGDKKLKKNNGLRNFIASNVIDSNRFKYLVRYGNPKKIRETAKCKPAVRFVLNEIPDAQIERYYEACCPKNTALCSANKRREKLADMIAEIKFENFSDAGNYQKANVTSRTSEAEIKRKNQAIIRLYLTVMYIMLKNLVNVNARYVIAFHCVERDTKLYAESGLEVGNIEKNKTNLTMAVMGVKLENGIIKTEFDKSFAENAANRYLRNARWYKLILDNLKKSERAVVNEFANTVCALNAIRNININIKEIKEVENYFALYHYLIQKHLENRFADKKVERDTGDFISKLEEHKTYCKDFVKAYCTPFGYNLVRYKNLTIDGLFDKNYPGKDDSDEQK

B1: target 1 del7,del16 (mixed)
RNA 1: CACCCGUGCAAAAAUGCAGGGGUCUAAAACUGAGCGGAUAACCUCUCUAUGG
RNA 2: GGGAAUGGAUCCACAUCUACGAAUUCGUACCAUAGGAGGUUAUCGCUCACCGAGAUCGGAAGAGCACACGU
B2: target 1 insC 3' of 22,insA 3' of 6 (mixed)
RNA 1: CACCCGUGCAAAAAUGCAGGGGUCUAAAACUGAGCGGAUAACCUCUCUAUGG
RNA 2: GGGAAUGGAUCCACAUCUACGAAUUCGUACCCAUAGAGAGGUUAUCCAGCUCACCGAGAUCGGAAGAGCACACGU
B3: target 1 A18C,U19A (mixed)
RNA 1: CACCCGUGCAAAAAUGCAGGGGUCUAAAACUGAGCGGAUAACCUCUCUAUGG
RNA 2: GGGAAUGGAUCCACAUCUACGAAUUCGUACCAACGAGAGGUUAUCCGCUCACCGAGAUCGGAAGAGCACACGU
B4: target 2 MT 5'PFS GUG 3'PFS UCA (mixed)
RNA 1: CACCCGUGCAAAAUUGCAGGGGUCUAAAACCUUCUCCAAAUUGUUUCAUCCU
RNA 2: GGGAAUGGAUCCACAUCUACGAAUUCGUGAGGAUGAAACAAUUUGGAGAAGUCAAGAUCGGAAGAGCACACGU
B5: target 2 MT 5'PFS AGC 3'PFS ACA (mixed)
RNA 1: CACCCGUGCAAAAUUGCAGGGGUCUAAAACCUUCUCCAAAUUGUUUCAUCCU
RNA 2: GGGAAUGGAUCCACAUCUACGAAUUCAGCAGGAUGAAACAAUUUGGAGAAGACAAGAUCGGAAGAGCACACGU
B6: target 2 MT 5'PFS AUC 3'PFS CUU (mixed)
RNA 1: CACCCGUGCAAAAUUGCAGGGGUCUAAAACCUUCUCCAAAUUGUUUCAUCCU
RNA 2: GGGAAUGGAUCCACAUCUACGAAUUCAUCAGGAUGAAACAAUUUGGAGAAGCUUAGAUCGGAAGAGCACACGU
B7: target 2 MT 5'PFS AUC 3'PFS CUA (mixed)
RNA 1: CACCCGUGCAAAAUUGCAGGGGUCUAAAACCUUCUCCAAAUUGUUUCAUCCU
RNA 2: GGGAAUGGAUCCACAUCUACGAAUUCAUCAGGAUGAAACAAUUUGGAGAAGCUAAGAUCGGAAGAGCACACGU
B8: target 2 MT 5'PFS ACA 3'PFS UAA (mixed)
RNA 1: CACCCGUGCAAAAUUGCAGGGGUCUAAAACCUUCUCCAAAUUGUUUCAUCCU
RNA 2: GGGAAUGGAUCCACAUCUACGAAUUCACAAGGAUGAAACAAUUUGGAGAAGUAAAGAUCGGAAGAGCACACGU
B9: target 2 MT 5'PFS AGA 3'PFS CAA (mixed)
RNA 1: CACCCGUGCAAAAUUGCAGGGGUCUAAAACCUUCUCCAAAUUGUUUCAUCCU
RNA 2: GGGAAUGGAUCCACAUCUACGAAUUCAGAAGGAUGAAACAAUUUGGAGAAGCAAAGAUCGGAAGAGCACACGU
B10: target 2 MT 5'PFS AGU 3'PFS CAG (mixed)
RNA 1: CACCCGUGCAAAAUUGCAGGGGUCUAAAACCUUCUCCAAAUUGUUUCAUCCU
RNA 2: GGGAAUGGAUCCACAUCUACGAAUUCAGUAGGAUGAAACAAUUUGGAGAAGCAGAGAUCGGAAGAGCACACGU
B11: target 2 MT 5'PFS AAC 3'PFS AAA (mixed)
RNA 1: CACCCGUGCAAAAUUGCAGGGGUCUAAAACCUUCUCCAAAUUGUUUCAUCCU
RNA 2: GGGAAUGGAUCCACAUCUACGAAUUCAACAGGAUGAAACAAUUUGGAGAAGAAAAGAUCGGAAGAGCACACGU
B12: target 2 MT 5'PFS CGC 3'PFS UUG (mixed)
RNA 1: CACCCGUGCAAAAUUGCAGGGGUCUAAAACCUUCUCCAAAUUGUUUCAUCCU
RNA 2: GGGAAUGGAUCCACAUCUACGAAUUCCGCAGGAUGAAACAAUUUGGAGAAGUUGAGAUCGGAAGAGCACACGU
B13: target 2 MT 5'PFS GUU 3'PFS ACU (mixed)
RNA 1: CACCCGUGCAAAAUUGCAGGGGUCUAAAACCUUCUCCAAAUUGUUUCAUCCU
RNA 2: GGGAAUGGAUCCACAUCUACGAAUUCGUUAGGAUGAAACAAUUUGGAGAAGACUAGAUCGGAAGAGCACACGU
B14: target 2 MT 5'PFS UUC 3'PFS UAC (mixed)
RNA 1: CACCCGUGCAAAAUUGCAGGGGUCUAAAACCUUCUCCAAAUUGUUUCAUCCU
RNA 2: GGGAAUGGAUCCACAUCUACGAAUUCUUCAGGAUGAAACAAUUUGGAGAAGUACAGAUCGGAAGAGCACACGU
B15: target 2 MT 5'PFS AGC 3'PFS ACG (mixed)
RNA 1: CACCCGUGCAAAAUUGCAGGGGUCUAAAACCUUCUCCAAAUUGUUUCAUCCU
RNA 2: GGGAAUGGAUCCACAUCUACGAAUUCAGCAGGAUGAAACAAUUUGGAGAAGACGAGAUCGGAAGAGCACACGU
B16: target 2 MT 5'PFS GUG 3'PFS UCC (mixed)
RNA 1: CACCCGUGCAAAAUUGCAGGGGUCUAAAACCUUCUCCAAAUUGUUUCAUCCU
RNA 2: GGGAAUGGAUCCACAUCUACGAAUUCGUGAGGAUGAAACAAUUUGGAGAAGUCCAGAUCGGAAGAGCACACGU
B17: target 2 MT 5'PFS ACA 3'PFS UAC (mixed)
RNA 1: CACCCGUGCAAAAUUGCAGGGGUCUAAAACCUUCUCCAAAUUGUUUCAUCCU
RNA 2: GGGAAUGGAUCCACAUCUACGAAUUCACAAGGAUGAAACAAUUUGGAGAAGUACAGAUCGGAAGAGCACACGU
B18: target 2 MT 5'PFS GUU 3'PFS ACC (mixed)
RNA 1: CACCCGUGCAAAAUUGCAGGGGUCUAAAACCUUCUCCAAAUUGUUUCAUCCU
RNA 2: GGGAAUGGAUCCACAUCUACGAAUUCGUUAGGAUGAAACAAUUUGGAGAAGACCAGAUCGGAAGAGCACACGU
B19: target 2 MT 5'PFS AGA 3'PFS CAC (mixed)
RNA 1: CACCCGUGCAAAAUUGCAGGGGUCUAAAACCUUCUCCAAAUUGUUUCAUCCU
RNA 2: GGGAAUGGAUCCACAUCUACGAAUUCAGAAGGAUGAAACAAUUUGGAGAAGCACAGAUCGGAAGAGCACACGU
B20: target 2 MT 5'PFS UAG 3'PFS UAG (mixed)
RNA 1: CACCCGUGCAAAAUUGCAGGGGUCUAAAACCUUCUCCAAAUUGUUUCAUCCU
RNA 2: GGGAAUGGAUCCACAUCUACGAAUUCUAGAGGAUGAAACAAUUUGGAGAAGUAGAGAUCGGAAGAGCACACGU
B21: target 2 MT 5'PFS ACA 3'PFS UAU (mixed)
RNA 1: CACCCGUGCAAAAUUGCAGGGGUCUAAAACCUUCUCCAAAUUGUUUCAUCCU
RNA 2: GGGAAUGGAUCCACAUCUACGAAUUCACAAGGAUGAAACAAUUUGGAGAAGUAUAGAUCGGAAGAGCACACGU
B22: target 2 MT 5'PFS GUU 3'PFS ACA (mixed)
RNA 1: CACCCGUGCAAAAUUGCAGGGGUCUAAAACCUUCUCCAAAUUGUUUCAUCCU
RNA 2: GGGAAUGGAUCCACAUCUACGAAUUCGUUAGGAUGAAACAAUUUGGAGAAGACAAGAUCGGAAGAGCACACGU
B23: target 2 MT 5'PFS AGU 3'PFS CAC (mixed)
RNA 1: CACCCGUGCAAAAUUGCAGGGGUCUAAAACCUUCUCCAAAUUGUUUCAUCCU
RNA 2: GGGAAUGGAUCCACAUCUACGAAUUCAGUAGGAUGAAACAAUUUGGAGAAGCACAGAUCGGAAGAGCACACGU
B24: target 2 MT 5'PFS AGA 3'PFS CAG (mixed)
RNA 1: CACCCGUGCAAAAUUGCAGGGGUCUAAAACCUUCUCCAAAUUGUUUCAUCCU
RNA 2: GGGAAUGGAUCCACAUCUACGAAUUCAGAAGGAUGAAACAAUUUGGAGAAGCAGAGAUCGGAAGAGCACACGU
B25: target 2 MT 5'PFS CGC 3'PFS UUA (mixed)
RNA 1: CACCCGUGCAAAAUUGCAGGGGUCUAAAACCUUCUCCAAAUUGUUUCAUCCU
RNA 2: GGGAAUGGAUCCACAUCUACGAAUUCCGCAGGAUGAAACAAUUUGGAGAAGUUAAGAUCGGAAGAGCACACGU
B26: target 2 MT 5'PFS AUC 3'PFS CUC (mixed)
RNA 1: CACCCGUGCAAAAUUGCAGGGGUCUAAAACCUUCUCCAAAUUGUUUCAUCCU
RNA 2: GGGAAUGGAUCCACAUCUACGAAUUCAUCAGGAUGAAACAAUUUGGAGAAGCUCAGAUCGGAAGAGCACACGU
B27: target 2 MT 5'PFS UAC 3'PFS UGC (mixed)
RNA 1: CACCCGUGCAAAAUUGCAGGGGUCUAAAACCUUCUCCAAAUUGUUUCAUCCU
RNA 2: GGGAAUGGAUCCACAUCUACGAAUUCUACAGGAUGAAACAAUUUGGAGAAGUGCAGAUCGGAAGAGCACACGU
B28: target 2 MT 5'PFS GUG 3'PFS UCG (mixed)
RNA 1: CACCCGUGCAAAAUUGCAGGGGUCUAAAACCUUCUCCAAAUUGUUUCAUCCU
RNA 2: GGGAAUGGAUCCACAUCUACGAAUUCGUGAGGAUGAAACAAUUUGGAGAAGUCGAGAUCGGAAGAGCACACGU

molecular target: T1, EsCas13d, nuclease-dead; assay: crRNA (strand 1, pre-loaded); Mg2+; 40 mM Tris-HCl pH 7.5, 150 mM NaCl, 6 mM MgCl2, 1 mM DTT, 0.1% Tween-20, 0.2 mg/ml BSA; 25 C; 10 min per concentration, then washed; conditions: tags: His6-TwinStrep-SUMO cleaved; N-terminal SNAP kept (SNAP-Surface 488); label: 3' end held by stalled T7 RNA polymerase

Row | Binder | Kd [µM]
1 | B1 | 0.045 ± 0.006
2 | B2 | 0.0129 ± 0.0009
3 | B3 | 0.049 ± 0.004
4 | B4 | 0.0173 ± 0.0027
5 | B5 | 0.0079 ± 0.0032
6 | B6 | ~0.09
7 | B7 | ~0.09
8 | B8 | 0.0043 ± 0.0014
9 | B9 | 0.0035 ± 0.0008
10 | B10 | 0.0142 ± 0.0031
11 | B11 | 0.01 ± 0.005
12 | B12 | 0.0081 ± 0.0014
13 | B13 | 0.0155 ± 0.001
14 | B14 | 0.017 ± 0.006
15 | B15 | 0.0071 ± 0.0009
16 | B16 | 0.042 ± 0.006
17 | B17 | ~0.018
18 | B18 | 0.0181 ± 0.003
19 | B19 | 0.0074 ± 0.0016
20 | B20 | 0.0037 ± 0.0004
21 | B21 | 0.0051 ± 0.0011
22 | B22 | 0.0175 ± 0.0023
23 | B23 | 0.015 ± 0.005
24 | B24 | 0.0057 ± 0.0008
25 | B25 | 0.0111 ± 0.0025
26 | B26 | 0.066 ± 0.025
27 | B27 | 0.006 ± 0.0008
28 | B28 | 0.0182 ± 0.0022
